Reference: publication PMC4234684 (Cellular and molecular life sciences : CMLS, 2014)

Assay: Michaelis–Menten kinetic analysis with colorimetric substrate nitrocefin
Assay type: biochemical
Settings: PBS, 30 °C, mean ± SEM

B1: Enterobacter chloacae P99 beta-lactamase (protein, UniProt P05364 21-381, looked up)
Beta-lactamase: TPVSEKQLAEVVANTITPLMKAQSVPGMAVAVIYQGKPHYYTFGKADIAANKPVTPQTLFELGSISKTFTGVLGGDAIARGEISLDDAVTRYWPQLTGKQWQGIRMLDLATYTAGGLPLQVPDEVTDNASLLRFYQNWQPQWKPGTTRLYANASIGLFGALAVKPSGMPYEQAMTTRVLKPLKLDHTWINVPKAEEAHYAWGYRDGKAVRVSPGMLDAQAYGVKTNVQDMANWVMANMAPENVADASLKQGIALAQSRYWRIGSMYQGLGWEMLNWPVEANTVVEGSDSKVALAPLPVAEVNPPAPPVKASWVHKTGSTGGFGSYVAFIPEKQIGIVMLANTSYPNPARVEAAYHILEALQ
modifications: C-terminal His6 tag
- kcat/Km: 7.5e+06 ± 600000 M⁻¹ s⁻¹
